This note sets out measurements from publication PMC3232451 (Nature structural & molecular biology, 2011).

Where no end group is shown, it is not given here.

The target of data set [1] is TBL1 F26A (human). As to the kind of experiment: NMR HSQC spectra.
The target in data set [2] is TBL1 F26A (human). Nature of the data set: SEC. In general terms: SEC sorts molecules by how far they enter the pores of the column.
Data set [3] deals with TBL1 wild type (gel filtration and HSQC; limits not stated) (human). As to the kind of experiment: NMR HSQC spectra.
For data set [4] the target is unchanged. As to the kind of experiment: SEC.
The target of data set [5] is T1, SMRT(167-207), GST removed (human, UniProt Q9Y618 167-207).
T1 chain (looked up): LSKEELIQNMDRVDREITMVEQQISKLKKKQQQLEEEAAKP
Nature of the data set: NMR structure.

Data set [6] deals with T2, His6-TBL1(1-90) (human, UniProt O60907-2 1-90).
T2 sequence (looked up): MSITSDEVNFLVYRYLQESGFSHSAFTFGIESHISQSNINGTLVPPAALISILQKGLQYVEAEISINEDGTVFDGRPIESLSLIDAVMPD
Nature of the data set: fluorescence polarisation.

Data set [7] concerns the molecule itself. As to the kind of experiment: crystal structure.

In general, stoichiometry N refers to the number of molecules, sites or subunits per partner or assembly. As a reminder, the Kd is a measure of binding affinity in units of concentration. Read a low Kd as tighter binding.

Turning to TBL1 F26A (domain or fragment), the stoichiometry N in data set [1] and in data set [2] was 2 throughout.
For “TBL1 wild type (gel filtration and HSQC; limits not stated) (domain or fragment)”, the stoichiometry N in data set [3] and in data set [4] was 4 each time.
As to KKEMEERMSLEETKEQILKLEEKLLALQEEKHQLFLQL (domain or fragment, human, UniProt Q13227 53-90, looked up) [GPS2(53-90)], in data set [5], the binding result is “binds”.
VQIIYDENRKKAEAAHRILEGLGPQVELPLYNQP (peptide, UniProt Q9Y618 227-260, looked up, also: BODIPY label, position not given here) [BODIPY labeled SMRT(227-260)] came in with a Kd in data set [6] of 14.7 µM.

B1: BODIPY labeled GPS2(1-52) (peptide, UniProt Q13227 1-52, looked up)
chain: MPALLERPKLSNAMARALHRHIMMERERKRQEEEEVDKMMEQKMKEEQERRK
modifications: also: BODIPY label, position not given here
In the case of B1, the Kd in data set [6] came out at 5.1 µM.

B2: His6-TBL1(1-71) (domain or fragment, human, UniProt O60907-2 1-71, looked up)
chain: MSITSDEVNFLVYRYLQESGFSHSAFTFGIESHISQSNINGTLVPPAALISILQKGLQYVEAEISINEDGT
Regarding B2, the “stoichiometry N” value in data set [7] is 4.
